# Measurements: the supplement of paper PMC5998384
# Columns and labels:
# HeLa Kyoto [1] = assay: melting temperature (median over replicates), in situ; higher = more thermally stable
# HeLa Kyoto [2] = assay: solubility in G1/S (NP-40 vs SDS abundance) (log2 ratio); higher = more soluble; details: cell cycle stage: G1/S
# HeLa Kyoto [3] = assay: solubility change mitosis vs G1/S (difference of NP-40 vs SDS log2 ratios) (log2 ratio difference); higher = more soluble in mitosis
# HeLa Kyoto [4] = assay: thermal stability score vs G1/S (z-score of summed log2 fold changes over temperatures); higher = more thermally stable than in G1/S
# [5] = cell cycle stage: early G1 (4.5 h after nocodazole release)
# 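For melting temperature (median over replicates), in situ in this document: HeLa Kyoto cells synchronized by double thymidine or nocodazole block, proteins quantified by TMT10plex mass spectrometry, three independent biological replicates.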
# 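For solubility change mitosis vs G1/S (difference of NP-40 vs SDS log2 ratios) in this document: synchronized HeLa Kyoto cells (double thymidine block for G1/S, nocodazole release for mitosis), protein amounts in NP-40 versus SDS lysates quantified by mass spectrometry, three biological replicates.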
# 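For solubility in G1/S (NP-40 vs SDS abundance) in this document: HeLa Kyoto cells arrested at G1/S by double thymidine block, proteins quantified by TMT10plex mass spectrometry in mild NP-40 versus SDS extracts, three biological replicates.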
# 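For thermal stability score vs G1/S (z-score of summed log2 fold changes over temperatures) in this document: synchronized HeLa Kyoto cells, proteins quantified by TMT10plex mass spectrometry, three biological replicates, mitosis taken 0.5 h after nocodazole release, G1/S directly after double thymidine block.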
sequence,measurement,setting,value
MEKRLGVKPNPASWILSGYYWQTSAKWLRSLYLFYTCFCFSVLWLSTDASESRCQQGKTQFGVGLRSGGENHLWLLEGTPSLQSCWAACCQDSACHVFWWLEGMCIQADCSRPQSCRAFRTHSSNSMLVFLKKFQTADDLGFLPEDDVPHLLGLGWNWASWRQSPPRAALRPAVSSSDQQSLIRKLQKRGSPSDVVTPIVTQHSKVNDSNELGGLTTSGSAEVHKAITISSPLTTDLTAELSGGPKNVSVQPEISEGLATTPSTQQVKSSEKTQIAVPQPVAPSYSYATPTPQASFQSTSAPYPVIKELVVSAGESVQITLPKNEVQLNAYVLQEPPKGETYTYDWQLITHPRDYSGEMEGKHSQILKLSKLTPGLYEFKVIVEGQNAHGEGYVNVTVKPEPRKNRPPIAIVSPQFQEISLPTTSTVIDGSQSTDDDKIVQYHWEELKGPLREEKISEDTAILKLSKLVPGNYTFSLTVVDSDGATNSTTANLTVNKAVDYPPVANAGPNQVITLPQNSITLFGNQSTDDHGITSYEWSLSPSSKGKVVEMQGVRTPTLQLSAMQEGDYTYQLTVTDTIGQQATAQVTVIVQPENNKPPQADAGPDKELTLPVDSTTLDGSKSSDDQKIISYLWEKTQGPDGVQLENANSSVATVTGLQVGTYVFTLTVKDERNLQSQSSVNVIVKEEINKPPIAKITGNVVITLPTSTAELDGSKSSDDKGIVSYLWTRDEGSPAAGEVLNHSDHHPILFLSNLVEGTYTFHLKVTDAKGESDTDRTTVEVKPDPRKNNLVEIILDINVSQLTERLKGMFIRQIGVLLGVLDSDIIVQKIQPYTEQSTKMVFFVQNEPPHQIFKGHEVAAMLKSELRKQKADFLIFRALEVNTVTCQLNCSDHGHCDSFTKRCICDPFWMENFIKVQLRDGDSNCEWSVLYVIIATFVIVVALGILSWTVICCCKRQKGKPKRKSKYKILDATDQESLELKPTSRAGIKQKGLLLSSSLMHSESELDSDDAIFTWPDREKGKLLHGQNGSVPNGQTPLKARSPREEIL [KIAA0319L],melting temperature,HeLa Kyoto [1]; cell cycle stage: G1/S,58.5 °C
same,melting temperature,HeLa Kyoto [1]; cell cycle stage: mitosis,56.2 °C
same,solubility in G1/S (log2),HeLa Kyoto [2],0.0342
same,solubility change mitosis (log2),HeLa Kyoto [3],0.0841
same,thermal stability score,HeLa Kyoto [4]; [5],-3.99
same,thermal stability score,HeLa Kyoto [4]; cell cycle stage: mitosis,-5.23
MELALRRSPVPRWLLLLPLLLGLNAGAVIDWPTEEGKEVWDYVTVRKDAYMFWWLYYATNSCKNFSELPLVMWLQGGPGGSSTGFGNFEEIGPLDSDLKPRKTTWLQAASLLFVDNPVGTGFSYVNGSGAYAKDLAMVASDMMVLLKTFFSCHKEFQTVPFYIFSESYGGKMAAGIGLELYKAIQRGTIKCNFAGVALGDSWISPVDSVLSWGPYLYSMSLLEDKGLAEVSKVAEQVLNAVNKGLYREATELWGKAEMIIEQNTDGVNFYNILTKSTPTSTMESSLEFTQSHLVCLCQRHVRHLQRDALSQLMNGPIRKKLKIIPEDQSWGGQATNVFVNMEEDFMKPVISIVDELLEAGINVTVYNGQLDLIVDTMGQEAWVRKLKWPELPKFSQLKWKALYSDPKSLETSAFVKSYKNLAFYWILKAGHMVPSDQGDMALKMMRLVTQQE [SCPEP1],melting temperature,HeLa Kyoto [1]; cell cycle stage: G1/S,56.9 °C
same,melting temperature,HeLa Kyoto [1]; cell cycle stage: mitosis,55.6 °C
same,solubility in G1/S (log2),HeLa Kyoto [2],0.402
same,solubility change mitosis (log2),HeLa Kyoto [3],0.202
same,thermal stability score,HeLa Kyoto [4]; [5],-2.33
same,thermal stability score,HeLa Kyoto [4]; cell cycle stage: mitosis,-0.14
MELQDPKMNGALPSDAVGYRQEREGFLPSRGPAPGSKPVQFMDFEGKTSFGMSVFNLSNAIMGSGILGLAYAMAHTGVIFFLALLLCIALLSSYSIHLLLTCAGIAGIRAYEQLGQRAFGPAGKVVVATVICLHNVGAMSSYLFIIKSELPLVIGTFLYMDPEGDWFLKGNLLIIIVSVLIILPLALMKHLGYLGYTSGLSLTCMLFFLVSVIYKKFQLGCAIGHNETAMESEALVGLPSQGLNSSCEAQMFTVDSQMSYTVPIMAFAFVCHPEVLPIYTELCRPSKRRMQAVANVSIGAMFCMYGLTATFGYLTFYSSVKAEMLHMYSQKDPLILCVRLAVLLAVTLTVPVVLFPIRRALQQLLFPGKAFSWPRHVAIALILLVLVNVLVICVPTIRDIFGVIGSTSAPSLIFILPSIFYLRIVPSEVEPFLSWPKIQALCFGVLGVLFMAVSLGFMFANWATGQSRMSGH [SLC38A5],melting temperature,HeLa Kyoto [1]; cell cycle stage: G1/S,56.1 °C
same,melting temperature,HeLa Kyoto [1]; cell cycle stage: mitosis,53.1 °C
same,solubility in G1/S (log2),HeLa Kyoto [2],-0.0136
same,solubility change mitosis (log2),HeLa Kyoto [3],-0.0437
same,thermal stability score,HeLa Kyoto [4]; [5],-1.85
same,thermal stability score,HeLa Kyoto [4]; cell cycle stage: mitosis,-3.24
MELRVGNRYRLGRKIGSGSFGDIYLGTDIAAGEEVAIKLECVKTKHPQLHIESKIYKMMQGGVGIPTIRWCGAEGDYNVMVMELLGPSLEDLFNFCSRKFSLKTVLLLADQMISRIEYIHSKNFIHRDVKPDNFLMGLGKKGNLVYIIDFGLAKKYRDARTHQHIPYRENKNLTGTARYASINTHLGIEQSRRDDLESLGYVLMYFNLGSLPWQGLKAATKRQKYERISEKKMSTPIEVLCKGYPSEFATYLNFCRSLRFDDKPDYSYLRQLFRNLFHRQGFSYDYVFDWNMLKFGASRAADDAERERRDREERLRHSRNPATRGLPSTASGRLRGTQEVAPPTPLTPTSHTANTSPRPVSGMERERKVSMRLHRGAPVNISSSDLTGRQDTSRMSTSQIPGRVASSGLQSVVHR [CSNK1D],melting temperature,HeLa Kyoto [1]; cell cycle stage: G1/S,50.1 °C
same,melting temperature,HeLa Kyoto [1]; cell cycle stage: mitosis,50.9 °C
same,solubility in G1/S (log2),HeLa Kyoto [2],-0.067
same,solubility change mitosis (log2),HeLa Kyoto [3],-0.0573
same,thermal stability score,HeLa Kyoto [4]; [5],-0.73
same,thermal stability score,HeLa Kyoto [4]; cell cycle stage: mitosis,-0.371
MELRVLLCWASLAAALEETLLNTKLETADLKWVTFPQVDGQWEELSGLDEEQHSVRTYEVCDVQRAPGQAHWLRTGWVPRRGAVHVYATLRFTMLECLSLPRAGRSCKETFTVFYYESDADTATALTPAWMENPYIKVDTVAAEHLTRKRPGAEATGKVNVKTLRLGPLSKAGFYLAFQDQGACMALLSLHLFYKKCAQLTVNLTRFPETVPRELVVPVAGSCVVDAVPAPGPSPSLYCREDGQWAEQPVTGCSCAPGFEAAEGNTKCRACAQGTFKPLSGEGSCQPCPANSHSNTIGSAVCQCRVGYFRARTDPRGAPCTTPPSAPRSVVSRLNGSSLHLEWSAPLESGGREDLTYALRCRECRPGGSCAPCGGDLTFDPGPRDLVEPWVVVRGLRPDFTYTFEVTALNGVSSLATGPVPFEPVNVTTDREVPPAVSDIRVTRSSPSSLSLAWAVPRAPSGAVLDYEVKYHEKGAEGPSSVRFLKTSENRAELRGLKRGASYLVQVRARSEAGYGPFGQEHHSQTQLDESEGWREQLALIAGTAVVGVVLVLVVIVVAVLCLRKQSNGREAEYSDKHGQYLIGHGTKVYIDPFTYEDPNEAVREFAKEIDVSYVKIEEVIGAGEFGEVCRGRLKAPGKKESCVAIKTLKGGYTERQRREFLSEASIMGQFEHPNIIRLEGVVTNSMPVMILTEFMENGALDSFLRLNDGQFTVIQLVGMLRGIASGMRYLAEMSYVHRDLAARNILVNSNLVCKVSDFGLSRFLEENSSDPTYTSSLGGKIPIRWTAPEAIAFRKFTSASDAWSYGIVMWEVMSFGERPYWDMSNQDVINAIEQDYRLPPPPDCPTSLHQLMLDCWQKDRNARPRFPQVVSALDKMIRNPASLKIVARENGGASHPLLDQRQPHYSAFGSVGEWLRAIKMGRYEESFAAAGFGSFELVSQISAEDLLRIGVTLAGHQKKILASVQHMKSQAKPGTPGGTGGPAPQY [EPHB4],melting temperature,HeLa Kyoto [1]; cell cycle stage: G1/S,49.4 °C
same,melting temperature,HeLa Kyoto [1]; cell cycle stage: mitosis,48.9 °C
same,solubility in G1/S (log2),HeLa Kyoto [2],0.0967
same,solubility change mitosis (log2),HeLa Kyoto [3],-0.108
same,thermal stability score,HeLa Kyoto [4]; [5],1.38
same,thermal stability score,HeLa Kyoto [4]; cell cycle stage: mitosis,-0.755
